± gives the standard deviation of the averaged measurements.
Assay: total protein half-life in vivo (active degradation + dilution); higher = more stable protein
[1] = E. coli NCM3722 delta-clpP delta-lon delta-hslV, growth: N-lim chemostat, doubling time 6 h
[2] = E. coli NCM3722 delta-clpP, growth: N-lim chemostat, doubling time 6 h
[3] = E. coli NCM3722 delta-hslV, growth: N-lim chemostat, doubling time 6 h
[4] = E. coli NCM3722 delta-lon, growth: N-lim chemostat, doubling time 6 h
[5] = E. coli NCM3722 delta-smpB, growth: N-lim chemostat, doubling time 6 h
[6] = wild type E. coli NCM3722, growth: C-lim chemostat, doubling time 3 h
[7] = wild type E. coli NCM3722, growth: C-lim chemostat, doubling time 6 h
[8] = wild type E. coli NCM3722, growth: C-lim chemostat, doubling time 12 h
[9] = wild type E. coli NCM3722, growth: N-lim chemostat, doubling time 6 h
[10] = wild type E. coli NCM3722, growth: N-lim chemostat, doubling time 12 h
[11] = wild type E. coli NCM3722, growth: P-lim chemostat, doubling time 6 h
[12] = wild type E. coli NCM3722, growth: P-lim chemostat, doubling time 12 h

Sequence	total protein half-life in vivo [1] [h]	total protein half-life in vivo [2] [h]	total protein half-life in vivo [3] [h]	total protein half-life in vivo [4] [h]	total protein half-life in vivo [5] [h]	total protein half-life in vivo [6] [h]	total protein half-life in vivo [7] [h]	total protein half-life in vivo [8] [h]	total protein half-life in vivo [9] [h]	total protein half-life in vivo [10] [h]	total protein half-life in vivo [11] [h]	total protein half-life in vivo [12] [h]
MTMFQYYKRSRHFVFSAFIAFVFVLLCQNTAFARASSNGDLPTKADLQAQLDSLNKQKDLSAQDKLVQQDLTDTLATLDKIDRIKEETVQLRQKVAEAPEKMRQATAALTALSDVDNDEETRKILSTLSLRQLETRVAQALDDLQNAQNDLASYNSQLVSLQTQPERVQNAMYNASQQLQQIRSRLDGTDVGETALRPSQKVLMQAQQALLNAEIDQQRKSLEGNTVLQDTLQKQRDYVTANSARLEHQLQLLQEAVNSKRLTLTEKTAQEAVSPDEAARIQANPLVKQELEINQQLSQRLITATENGNQLMQQNIKVKNWLERALQSERNIKEQIAVLKGSLLLSRILYQQQQTLPSADELENMTNRIADLRLEQFEVNQQRDALFQSDAFVNKLEEGHTNEVNSEVHDALLQVVDMRRELLDQLNKQLGNQLMMAINLQINQQQLMSVSKNLKSILTQQIFWVNSNRPMDWDWIKAFPQSLKDEFKSMKITVNWQKAWPAVFIAFLAGLPLLLIAGLIHWRLGWLKAYQQKLASAVGSLRNDSQLNTPKAILIDLIRALPVCLIILAVGLILLTMQLNISELLWSFSKKLAIFWLVFGLCWKVLEKNGVAVRHFGMPEQQTSHWRRQIVRISLALLPIHFWSVVAELSPLHLMDDVLGQAMIFFNLLLIAFLVWPMCRESWRDKESHTMRLVTITVLSIIPIALMVLTATGYFYTTLRLAGRWIETVYLVIIWNLLYQTVLRGLSVAARRIAWRRALARRQNLVKEGAEGAEPPEEPTIALEQVNQQTLRITMLLMFALFGVMFWAIWSDLITVFSYLDSITLWHYNGTEAGAAVVKNVTMGSLLFAIIASMVAWALIRNLPGLLEVLVLSRLNMRQGASYAITTILNYIIIAVGAMTVFGSLGVSWDKLQWLAAALSVGLGFGLQEIFGNFVSGLIILFERPVRIGDTVTIGSFSGTVSKIRIRATTITDFDRKEVIIPNKAFVTERLINWSLTDTTTRLVIRLGVAYGSDLEKVRKVLLKAATEHPRVMHEPMPEVFFTAFGASTLDHELRLYVRELRDRSRTVDELNRTIDQLCRENDINIAFNQLEVHLHNEKGDEVTEVKRDYKGDDPTPAVG	5.8 ± 0.075	6.4 ± 0.7	5.72 ± 0.36	6.99 ± 1.1	5.79 ± 0.11	3.06 ± 0.094	5.56 ± 0.15	11.1 ± 2.1	6.73 ± 0.33	13.1 ± 1.6	5.94 ± 0.43	11.4 ± 0.85
MTMPTNQCPWRMQVHHITQETPDVWTISLICHDYYPYRAGQYALVSVRNSAETLRAYTISSTPGVSEYITLTVRRIDDGVGSQWLTRDVKRGDYLWLSDAMGEFTCDDKAEDKFLLLAAGCGVTPIMSMRRWLAKNRPQADVRVIYNVRTPQDVIFADEWRNYPVTLVAENNVTEGFIAGRLTRELLAGVPDLASRTVMTCGPAPYMDWVEQEVKALGVTRFFKEKFFTPVAEAATSGLKFTKLQPAREFYAPVGTTLLEALESNNVPVVAACRAGVCGCCKTKVVSGEYTVSSTMTLTDAEIAEGYVLACSCHPQGDLVLA	3.27 ± 0.63											
MTNITKRSLVAAGVLAALMAGNVALAADVPAGVTLAEKQTLVRNNGSEVQSLDPHKIEGVPESNISRDLFEGLLVSDLDGHPAPGVAESWDNKDAKVWTFHLRKDAKWSDGTPVTAQDFVYSWQRSVDPNTASPYASYLQYGHIAGIDEILEGKKPITDLGVKAIDDHTLEVTLSEPVPYFYKLLVHPSTSPVPKAAIEKFGEKWTQPGNIVTNGAYTLKDWVVNERIVLERSPTYWNNAKTVINQVTYLPIASEVTDVNRYRSGEIDMTNNSMPIELFQKLKKEIPDEVHVDPYLCTYYYEINNQKPPFNDVRVRTALKLGMDRDIIVNKVKAQGNMPAYGYTPPYTDGAKLTQPEWFGWSQEKRNEEAKKLLAEAGYTADKPLTINLLYNTSDLHKKLAIAASSLWKKNIGVNVKLVNQEWKTFLDTRHQGTFDVARAGWCADYNEPTSFLNTMLSNSSMNTAHYKSPAFDSIMAETLKVTDEAQRTALYTKAEQQLDKDSAIVPVYYYVNARLVKPWVGGYTGKDPLDNTYTRNMYIVKH	5.05 ± 0.41	5.96 ± 0.98	6.62 ± 0.85	6.25 ± 0.66	6.01 ± 0.075	3.13 ± 0.1	6.215 ± 0.047	12.7 ± 1.9	6.22 ± 0.13	12 ± 0.33	6.03 ± 0.071	12.3 ± 0.35
MTNNDTTLQLSSVLNRECTRSRVHCQSKKRALEIISELAAKQLSLPPQVVFEAILTREKMGSTGIGNGIAIPHGKLEEDTLRAVGVFVQLETPIAFDAIDNQPVDLLFALLVPADQTKTHLHTLSLVAKRLADKTICRRLRAAQSDEELYQIITDTEGTPDEA	4.58 ± 0.29	3.48 ± 2.9	5.17 ± 0.097	5.82	3.01 ± 0.57	2.46 ± 0.65	5.18 ± 1.6	9.11 ± 5.2	3.79	5.69 ± 0.31	3.46 ± 1.9	8.38 ± 1.6
MTNPLLTPFELPPFSKILPEHVVPAVTKALNDCRENVERVVAQGAPYTWENLCQPLAEVDDVLGRIFSPVSHLNSVKNSPELREAYEQTLPLLSEYSTWVGQHEGLYKAYRDLRDGDHYATLNTAQKKAVDNALRDFELSGIGLPKEKQQRYGEIATRLSELGNQYSNNVLDATMGWTKLVTDEAELAGMPESALAAAKAQAEAKELEGYLLTLDIPSYLPVMTYCDNQALREEMYRAYSTRASDQGPNAGKWDNSKVMEEILALRHELAQLLGFENYAFKSLATKMAENPQQVLDFLTDLAKRARPQGEKELAQLRAFAKAEFGVDELQPWDIAYYSEKQKQHLYSISDEQLRPYFPENKAVNGLFEVVKRIYGITAKERKDVDVWHPDVRFFELYDENNELRGSFYLDLYARENKRGGAWMDDCVGQMRKADGSLQKPVAYLTCNFNRPVNGKPALFTHDEVITLFHEFGHGLHHMLTRIETAGVSGISGVPWDAVELPSQFMENWCWEPEALAFISGHYETGEPLPKELLDKMLAAKNYQAALFILRQLEFGLFDFRLHAEFRPDQGAKILETLAEIKKLVAVVPSPSWGRFPHAFSHIFAGGYAAGYYSYLWADVLAADAFSRFEEEGIFNRETGQSFLDNILSRGGSEEPMDLFKRFRGREPQLDAMLEHYGIKG	4.42 ± 0.21	4.18 ± 0.052	4.03 ± 0.15	3.74 ± 0.18	3.55 ± 0.062	2.795 ± 0.023	5.17 ± 0.21	8.7 ± 0.94	3.68 ± 0.23	5.67 ± 0.55	5.1797 ± 0.00065	9.96 ± 1.1
MTNRISRLKTALFANTREISLERALLYTASHRQTEGEPVILRRAKATAYILEHVEISIRDEELIAGNRTVKPRAGIMSPEMDPYWLLKELDQFPTRPQDRFAISEEDKRIYREELFPYWEKRSMKDFINGQMTDEVKAATNTQIFSINQTDKGQGHIIIDYPRLLNHGLGELVAQMQQHCQQQPENHFYQAALLLLEASQKHILRYAELAETMAANCTDAQRREELLTIAEISRHNAQHKPQTFWQACQLFWYMNIILQYESNASSLSLGRFDQYMLPFYQTSLTQGEDAAFLKELLESLWVKCNDIVLLRSTSSARYFAGFPTGYTALLGGLTENGRSAVNVLSFLCLDAYQSVQLPQPNLGVRTNALIDTPFLMKTAETIRFGTGIPQIFNDEVVVPAFLNRGVSLEDARDYSVVGCVELSIPGRTYGLHDIAMFNLLKVMEICLHENEGNAALTYEGLLEQIRAKISHYITLMVEGSNICDIGHRDWAPVPLLSSFISDCLEKGRDITDGGARYNFSGVQGIGIANLSDSLHALKGMVFEQQRLSFDELLSVLKANFATPEGEKVRARLINRFEKYGNDIDEVDNISAELLRHYCKEVEKYQNPRGGYFTPGSYTVSAHVPLGSVVGATPDGRFAGEQLADGGLSPMLGQDAQGPTAVLKSVSKLDNTLLSNGTLLNVKFTPATLEGEAGLRKLADFLRAFTQLKLQHIQFNVVNADTLREAQQRPQDYAGLVVRVAGYSAFFVELSKEIQDDIIRRTAHQL	5.49 ± 0.94	3.15 ± 0.29										
MTNSNRIKLTWISFLSYALTGALVIVTGMVMGNIADYFNLPVSSMSNTFTFLNAGILISIFLNAWLMEIVPLKTQLRFGFLLMVLAVAGLMFSHSLALFSAAMFILGVVSGITMSIGTFLVTQMYEGRQRGSRLLFTDSFFSMAGMIFPMIAAFLLARSIEWYWVYACIGLVYVAIFILTFGCEFPALGKHAPKTDAPVEKEKWGIGVLFLSVAALCYILGQLGFISWVPEYAKGLGMSLNDAGTLVSNFWMSYMVGMWAFSFILRFFDLQRILTVLAGLAAILMYVFNTGTPAHMAWSILALGFFSSAIYTTIITLGSQQTKVPSPKLVNFVLTCGTIGTMLTFVVTGPIVEHSGPQAALLTANGLYAVVFVMCFLLGFVSRHRQHNTLTSH	5.5	5.55	5.855 ± 0.027	5.47 ± 0.58	5.72 ± 0.19				6.5 ± 0.71		6.42 ± 1.5	13.3
MTNYRVESSSGRAARKMRLALMGPAFIAAIGYIDPGNFATNIQAGASFGYQLLWVVVWANLMAMLIQILSAKLGIATGKNLAEQIRDHYPRPVVWFYWVQAEIIAMATDLAEFIGAAIGFKLILGVSLLQGAVLTGIATFLILMLQRRGQKPLEKVIGGLLLFVAAAYIVELIFSQPNLAQLGKGMVIPSLPTSEAVFLAAGVLGATIMPHVIYLHSSLTQHLHGGSRQQRYSATKWDVAIAMTIAGFVNLAMMATAAAAFHFSGHTGVADLDEAYLTLQPLLSHAAATVFGLSLVAAGLSSTVVGTLAGQVVMQGFIRFHIPLWVRRTVTMLPSFIVILMGLDPTRILVMSQVLLSFGIALALVPLLIFTSDSKLMGDLVNSKRVKQTGWVIVVLVVALNIWLLVGTALGL [P0A769]	2.46	3.02	2.87		2.15 ± 0.48	1.29		3.66	2.23 ± 1.2	3.65 ± 1.2	2.19	
MTPLVKDIIMSSTRMPALFLGHGSPMNVLEDNLYTRSWQKLGMTLPRPQAIVVVSAHWFTRGTGVTAMETPPTIHDFGGFPQALYDTHYPAPGSPALAQRLVELLAPIPVTLDKEAWGFDHGSWGVLIKMYPDADIPMVQLSIDSSKPAAWHFEMGRKLAALRDEGIMLVASGNVVHNLRTVKWHGDSSPYPWATSFNEYVKANLTWQGPVEQHPLVNYLDHEGGTLSNPTPEHYLPLLYVLGAWDGQEPITIPVEGIEMGSLSMLSVQIG		3.18				2.85	5.76	11.3	3.76		5.45	10.5 ± 0.65
MTPWFLYLIRTADNKLYTGITTDVERRYQQHQSGKGAKALRGKGELTLVFSAPVGDRSLALRAEYRVKQLTKRQKERLVAEGAGFAELLSSLQTPEIKSD	6.282 ± 0.0083										1.75	
MTQANLSETLFKPRFKHPETSTLVRRFNHGAQPPVQSALDGKTIPHWYRMINRLMWIWRGIDPREILDVQARIVMSDAERTDDDLYDTVIGYRGGNWIYEWATQAMVWQQKACAEDDPQLSGRHWLHAATLYNIAAYPHLKGDDLAEQAQALSNRAYEEAAQRLPGTMRQMEFTVPGGAPITGFLHMPKGDGPFPTVLMCGGLDAMQTDYYSLYERYFAPRGIAMLTIDMPSVGFSSKWKLTQDSSLLHQHVLKALPNVPWVDHTRVAAFGFRFGANVAVRLAYLESPRLKAVACLGPVVHTLLSDFKCQQQVPEMYLDVLASRLGMHDASDEALRVELNRYSLKVQGLLGRRCPTPMLSGYWKNDPFSPEEDSRLITSSSADGKLLEIPFNPVYRNFDKGLQEITDWIEKRLC	5.5 ± 0.92	5.97 ± 1.6	3.64 ± 0.2	3.85 ± 0.3	3.78 ± 0.053	2.32 ± 0.07	3.76 ± 0.11	4.98 ± 0.59	3.52 ± 0.098	5.5 ± 0.077	4.41 ± 0.33	7.49 ± 0.46
MTQDELKKAVGWAALQYVQPGTIVGVGTGSTAAHFIDALGTMKGQIEGAVSSSDASTEKLKSLGIHVFDLNEVDSLGIYVDGADEINGHMQMIKGGGAALTREKIIASVAEKFICIADASKQVDILGKFPLPVEVIPMARSAVARQLVKLGGRPEYRQGVVTDNGNVILDVHGMEILDPIAMENAINAIPGVVTVGLFANRGADVALIGTPDGVKTIVK [P0A7Z0]	4.63 ± 0.6	3.964 ± 0.033	4.16 ± 0.58	4.46 ± 0.19	4.21 ± 0.072	2.89 ± 0.12	5.36 ± 0.4	9.4966 ± 0.0081	4.01 ± 0.3	6.79 ± 0.038	5.1 ± 0.3	11.6 ± 0.7
